US20100221248A1 (MIT, published 2010)

What was measured:
human FcγRIIB, soluble = molecular target: T1, human FcγRIIB, soluble (human, UniProt P31994 43-217, limits assumed); assay: SPR (Biacore T100), MBP-Fn3 immobilized, soluble FcR injected
T1 construct: also called hFcγRIIB
T1 sequence (looked up): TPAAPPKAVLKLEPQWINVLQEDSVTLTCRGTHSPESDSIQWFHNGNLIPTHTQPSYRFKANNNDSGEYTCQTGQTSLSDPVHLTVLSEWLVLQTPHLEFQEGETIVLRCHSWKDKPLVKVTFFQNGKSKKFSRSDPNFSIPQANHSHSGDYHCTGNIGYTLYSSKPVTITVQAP
Protocol: (§1) Surface Plasmon Resonance Analysis. Steady state affinity measurements were performed on a Biacore T100 biosensor. MBP-Fn3 fusion proteins were immobilized to CM5 sensor chips (Biacore) by standard amine coupling. […] Dissociation constants were calculated after subtraction of background binding to a control flow cell using Biacore T100 Evaluation software.

[1] = molecular target: T2, human FcγRIIA, 131R allele, soluble (human, UniProt P12318 34-217, limits assumed); assay: SPR (Biacore T100), steady state, MBP-Fn3 immobilized, soluble FcR injected
T2 construct: also called hFcγRIIA
T2 sequence (looked up): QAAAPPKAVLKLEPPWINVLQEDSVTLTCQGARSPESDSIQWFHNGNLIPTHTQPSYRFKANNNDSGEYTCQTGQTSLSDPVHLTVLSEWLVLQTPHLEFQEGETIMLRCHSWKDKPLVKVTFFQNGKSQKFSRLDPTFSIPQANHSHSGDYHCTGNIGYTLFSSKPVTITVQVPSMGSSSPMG
Protocol: as §1

[2] = molecular target: T3, human FcγRIIA, 131H allele, soluble (human, UniProt P12318 34-217, limits assumed); assay: as above
T3 construct: also called hFcγRIIA
T3 sequence (looked up): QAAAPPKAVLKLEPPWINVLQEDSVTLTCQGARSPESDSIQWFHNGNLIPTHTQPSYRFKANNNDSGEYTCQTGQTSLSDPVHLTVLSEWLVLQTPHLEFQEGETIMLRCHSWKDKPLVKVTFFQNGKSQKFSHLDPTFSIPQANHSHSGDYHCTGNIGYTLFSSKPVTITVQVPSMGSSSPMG
Protocol: as §1

[3] = molecular target: T4, RIIA131R tetramer (biotinylated human FcγRIIA 131R complexed to streptavidin-PE) (human, UniProt P12318 34-217; P22629 37-163, limits assumed, PE conjugate; singly biotinylated); assay: yeast display titration with PE-tagged tetramer, flow cytometry; apparent (avid) Kd; parent clone IIA726 from the seventh FACS sort
T4 construct: Biotinylated FcR incubated with streptavidin-PE at a 4:1 molar ratio; Kd values measured against it are apparent (avid) values; also called RIIA tetramer; PE-tagged RIIA tetramer
T4 sequence (P22629 37-163 limits assumed, one chain of several): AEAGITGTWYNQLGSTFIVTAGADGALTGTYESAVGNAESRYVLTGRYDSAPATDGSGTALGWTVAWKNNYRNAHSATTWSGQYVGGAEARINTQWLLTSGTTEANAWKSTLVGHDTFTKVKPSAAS
Protocol: (§2) The yeast cells were washed and analyzed by flow cytometry.
(§3) Characterization of Individual Clones. Plasmid DNA was recovered from the later library generations (Zymoprep II kit) and transformed into competent DH5a bacteria (Invitrogen). Individual colonies (usually ten) were grown, miniprepped, and sequenced, as well as re-transformed into EBY100 yeast (EZ Yeast Transformation Kit, Zymo Research). The resulting clones were cultured in SD-CAA and induced in SG-CAA for analysis. To rapidly compare different clones, 0.1 OD.ml aliquots of yeast were labeled with a low and a high concentration of PE-tagged RIIA (1 nM, 30 nM) or RIIIA (0.3 nM, 10 nM) tetramer for 1 hour at RT prior to flow cytometry (Coulter Epics XL). The apparent tetramer Kd was estimated from the ratio of the two mean fluorescence readings. […] The labeling volumes (in PBSA) were chosen to give at least a 10-fold excess of FcR over Fn3. The yeast cells were centrifuged and washed with 0.5 ml PBSA for analysis by flow cytometry. The Kd value was determined by fitting the data to the equation y=A[tetramer]/([tetramer]+Kd)+B.

[4] = molecular target: T5, RIIB tetramer (biotinylated human FcγRIIB complexed to streptavidin-PE) (human, UniProt P31994 43-217; P22629 37-163, limits assumed, PE conjugate; singly biotinylated); assay: flow cytometry titration of yeast surface-displayed IIA726 with streptavidin-PE RIIB tetramer, 2 h at room temperature
T5 construct: Biotinylated FcR incubated with streptavidin-PE at a 4:1 molar ratio; also called PE-tagged RIIB tetramer
T5 sequence (P22629 37-163 limits assumed, one chain of several): as above
Protocol: as §2, §3

[5] = molecular target: T4, RIIA131R tetramer (biotinylated human …); assay: flow cytometry titration of yeast surface-displayed IIA726 with streptavidin-PE RIIA131R tetramer, 2 h at room temperature
Protocol: as §2, §3

[6] = molecular target: T5, RIIB tetramer (biotinylated human …); assay: yeast display, flow cytometry with PE-tagged tetramer
[7] = molecular target: T4, RIIA131R tetramer (biotinylated human …); assay: yeast display with PE-tagged tetramer, flow cytometry; apparent (avid) Kd; clone IIA827, IIA726 with the single mutation printed 188S
Protocol: as §3

[8] = molecular target: T2, human FcγRIIA, 131R allele, soluble; assay: SPR (Biacore T100), MBP-Fn3 immobilized, soluble FcR injected
Protocol: as §1

[9] = molecular target: T3, human FcγRIIA, 131H allele, soluble; assay: as above
Protocol: as §1

[10] = molecular target: T6, human FcγRIIIA on the surface of human peripheral blood mononuclear cells (non-lymphocyte gate) (human, UniProt P08637 17-254); assay: flow cytometry of human PBMCs with biotinylated MBP-Fn3 complexed to streptavidin-PE
T6 construct: whole, on cells; The target is inferred from the stated aim of the experiment, which was recognition of FcRs expressed on cell surfaces; also called RIIIA on PBMCs
T6 sequence (P08637 17-254): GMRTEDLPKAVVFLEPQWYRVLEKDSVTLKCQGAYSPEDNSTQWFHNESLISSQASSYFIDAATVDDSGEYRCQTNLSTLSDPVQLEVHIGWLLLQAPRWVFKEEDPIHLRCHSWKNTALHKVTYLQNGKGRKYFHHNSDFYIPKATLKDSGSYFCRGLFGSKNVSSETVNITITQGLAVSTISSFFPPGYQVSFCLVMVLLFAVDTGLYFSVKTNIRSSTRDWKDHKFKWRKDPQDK
Text: To determine whether the Fn3 domains were able to recognize FcRs expressed on cell surfaces, each MBP-Fn3 fusion protein was biotinylated, complexed with streptavidin-PE and used to label human peripheral blood mononuclear cells (PBMCs).

Binder | binding result (human FcγRIIB, soluble) | binding result [8] | binding result [9] | binding result [10] | further results
MBP-IIA726 (designed binder, Fn3 domain as a C-terminal fusion to MBP; It was first expressed in Rosetta(DE3), then in Rosetta-gami 2 to promote the disulfide bond between the BC and DE loops; For PBMC labelling it was biotinylated and complexed with streptavidin-PE; also called MBP fusion of IIA726; not shown: limits and vector linker not stat) LGENLYFQSVSDVPGDLEVVAATPTSLLISWCTHLHWDYYRIFYGETGGNSPVQEFTVPALCPGATISGLKPGVDYTITAYAVTVGGDDWPISINYRTEIDEPSQ | no binding | – | – | – | –
MBP-IIA827 (designed binder, Produced in Rosetta-gami 2; not shown: limits and vector linker not stat) LGENLYFQSVSDVPGDLEVVAATPTSLLISWCTHLHWDYYRIFYGETGGNSPVQEFTVPALCPGATISGLKPGVDYTITAYAVTVGGDDWPSSINYRTEIDEPSQ | – | – | – | – | Kd [1]: 850 nM; Kd [2]: 6200 nM
IIA726 (mutant Fn3 domain, yeast surface-displayed clone) (designed binder, It contains a pair of Cys residues in the BC and DE loops; also called yeast surface-displaying IIA726) VSDVPGDLEVVAATPTSLLISWCTHLHWDYYRIFYGETGGNSPVQEFTVPALCPGATISGLKPGVDYTITAYAVTVGGDDWPISINYRTEIDEPSQ | – | – | – | – | Kd [3]: 1.2 nM; binding result [4]: no binding (tested: 100 nM); EC50 (read off the curve) [5]: ~1 nM
IIA827 (mutant Fn3 domain, yeast surface-displayed clone) (designed binder, Derived from IIA726 by a single mutation, printed '188S'; also called clone IIA827) VSDVPGDLEVVAATPTSLLISWCTHLHWDYYRIFYGETGGNSPVQEFTVPALCPGATISGLKPGVDYTITAYAVTVGGDDWPSSINYRTEIDEPSQ | – | – | – | – | binding result [6]: no binding (tested: 100 nM); Kd [7]: 0.54 nM
MBP-IIIA537 (designed binder, Fn3 domain as a C-terminal fusion to MBP, expressed in E. coli Rosetta(DE3); For PBMC labelling it was biotinylated and complexed with streptavidin-PE; also called MBP fusion of IIIA537; not shown: limits and vector linker not stat) LGENLYFQSVSDVPRDLEVVVATPTSLLINWDLPFSDSYRITYGETGGNSPVQGFTVPGTESIATISGLKPGVDYTITVYAVASSGSNSYPISINYRTEIDKPSQ | no binding | no binding | no binding | binds | –
MBP-IIIA626 (designed binder, Fn3 domain as a C-terminal fusion to MBP, expressed in E. coli Rosetta(DE3); For PBMC labelling it was biotinylated and complexed with streptavidin-PE; also called MBP fusion of IIIA626; not shown: limits and vector linker not stat) LGENLYFQSVSDVPRDLEVVVATPTSLLINWDMPFSDSYRIAYGETGGNSPVQEFTVPGTDSLATISGLKPGVDYTITVYAVTSSGSNSYPISINYRTEIDKPSQ | no binding | no binding | no binding | binds | –
